Measurements taken from PMC11402785, “Structural basis for activity switching in polymerases determining the fate of let-7 pre-miRNAs” (Nature Structural & Molecular Biology, 2024).
Where a chain is given by its changes, count along the chain named.

T1: TUT4 (ZCCHC11);LIN28A (Homo sapiens;Homo sapiens, UniProt Q5TAX3;Q9H9Z2 254-1315;1-209, |)
T1 sequence 1: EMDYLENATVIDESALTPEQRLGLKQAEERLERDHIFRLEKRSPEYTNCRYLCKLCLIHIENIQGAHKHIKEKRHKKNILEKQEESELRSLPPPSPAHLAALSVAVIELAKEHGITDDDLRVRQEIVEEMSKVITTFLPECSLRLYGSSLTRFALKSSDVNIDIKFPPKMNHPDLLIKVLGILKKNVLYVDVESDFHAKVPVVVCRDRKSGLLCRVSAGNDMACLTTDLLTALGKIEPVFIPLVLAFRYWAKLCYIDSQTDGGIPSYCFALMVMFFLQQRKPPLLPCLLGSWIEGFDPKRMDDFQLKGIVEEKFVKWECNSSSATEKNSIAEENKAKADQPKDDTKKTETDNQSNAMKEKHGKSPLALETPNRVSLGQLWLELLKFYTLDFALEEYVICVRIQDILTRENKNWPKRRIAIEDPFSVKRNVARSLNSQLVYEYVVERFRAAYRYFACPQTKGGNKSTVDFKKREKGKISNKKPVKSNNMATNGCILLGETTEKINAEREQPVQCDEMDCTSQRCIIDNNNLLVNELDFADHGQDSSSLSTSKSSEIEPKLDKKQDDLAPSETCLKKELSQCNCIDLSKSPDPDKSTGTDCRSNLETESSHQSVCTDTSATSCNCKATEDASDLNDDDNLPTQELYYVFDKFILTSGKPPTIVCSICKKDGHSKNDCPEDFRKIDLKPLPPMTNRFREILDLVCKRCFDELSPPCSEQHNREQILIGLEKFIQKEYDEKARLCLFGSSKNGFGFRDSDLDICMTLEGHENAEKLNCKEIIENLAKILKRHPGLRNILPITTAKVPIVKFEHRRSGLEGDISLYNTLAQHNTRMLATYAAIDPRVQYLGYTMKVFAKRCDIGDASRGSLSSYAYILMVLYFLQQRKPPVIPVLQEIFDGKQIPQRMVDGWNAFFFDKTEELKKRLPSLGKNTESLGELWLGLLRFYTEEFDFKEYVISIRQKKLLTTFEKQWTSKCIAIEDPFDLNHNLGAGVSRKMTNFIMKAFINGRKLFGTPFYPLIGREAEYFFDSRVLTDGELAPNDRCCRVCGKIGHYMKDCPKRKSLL
T1 sequence 2: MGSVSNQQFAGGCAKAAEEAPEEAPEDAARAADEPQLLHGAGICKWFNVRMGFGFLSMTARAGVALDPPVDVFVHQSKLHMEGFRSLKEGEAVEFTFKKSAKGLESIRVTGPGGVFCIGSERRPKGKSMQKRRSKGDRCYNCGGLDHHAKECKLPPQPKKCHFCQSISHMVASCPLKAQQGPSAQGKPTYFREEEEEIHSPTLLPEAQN

T2: TUT4 K919/K920 mutant (ZK1);LIN28A (Homo sapiens;Homo sapiens, UniProt Q5TAX3;Q9H9Z2 254-1315;1-209, K919A;K920A|)
T2 sequence 1: T1 sequence 1 with K666A, K667A
T2 sequence 2: T1 sequence 2

B1: pre-let-7g (structured_RNA)
RNA: UGAGGUAGUAGUUUGUACAGUUUGAGGGUCUAUGAUACCACCCGGUACAGGAGAUAACUGUACAGGCCACUGCCUUGC
B2: pre-let-7g_3'CY (structured_RNA)
RNA: B1 RNA

Assays:
TUT4 (ZCCHC11);LIN28A [1] = target: T1, TUT4 (ZCCHC11);LIN28A; assay: cryo-EM; Zn2+; ternary capture state, 3.68 A; EMSA: 20 mM HEPES pH 7.8, 100 mM NaCl, 2 mM CaCl2, 50 uM ZnCl2, 5% glycerol, 5 mM DTT, 0.5 mM UTP, RNase inhibitor, on ice 30 min; 0.1 uM RNA, 0.2 uM TUT, 0.3 uM LIN28A; native gel in 1x TBE at 4 C; settings: protein: recombinant;recombinant; tags: N-term His6-GST (TEV cleavable), C-term twin-Strep;N-term His6-GST fusion; copies: 1;1; hairpin, 1 nt 3' overhang
TUT7 (ZCCHC6);LIN28A = TUT7 (ZCCHC6);LIN28A (Homo sapiens;Homo sapiens, UniProt Q5VYS8;Q9H9Z2 1-1495;1-209, |); assay: cryo-EM; Zn2+; ternary conformation I, 3.81 A; EMSA: 20 mM HEPES pH 7.8, 100 mM NaCl, 2 mM CaCl2, 50 uM ZnCl2, 5% glycerol, 5 mM DTT, 0.5 mM UTP, RNase inhibitor, on ice 30 min; 0.1 uM RNA, 0.2 uM TUT, 0.3 uM LIN28A; native gel in 1x TBE at 4 C; settings: protein: recombinant;recombinant; tags: N-term His6-GST (TEV cleavable), C-term twin-Strep;N-term His6-GST fusion; copies: 1;1; hairpin, 1 nt 3' overhang
Chain of TUT7 (ZCCHC6);LIN28A (Q5VYS8 whole entry, the tested form may be a part, one chain of several): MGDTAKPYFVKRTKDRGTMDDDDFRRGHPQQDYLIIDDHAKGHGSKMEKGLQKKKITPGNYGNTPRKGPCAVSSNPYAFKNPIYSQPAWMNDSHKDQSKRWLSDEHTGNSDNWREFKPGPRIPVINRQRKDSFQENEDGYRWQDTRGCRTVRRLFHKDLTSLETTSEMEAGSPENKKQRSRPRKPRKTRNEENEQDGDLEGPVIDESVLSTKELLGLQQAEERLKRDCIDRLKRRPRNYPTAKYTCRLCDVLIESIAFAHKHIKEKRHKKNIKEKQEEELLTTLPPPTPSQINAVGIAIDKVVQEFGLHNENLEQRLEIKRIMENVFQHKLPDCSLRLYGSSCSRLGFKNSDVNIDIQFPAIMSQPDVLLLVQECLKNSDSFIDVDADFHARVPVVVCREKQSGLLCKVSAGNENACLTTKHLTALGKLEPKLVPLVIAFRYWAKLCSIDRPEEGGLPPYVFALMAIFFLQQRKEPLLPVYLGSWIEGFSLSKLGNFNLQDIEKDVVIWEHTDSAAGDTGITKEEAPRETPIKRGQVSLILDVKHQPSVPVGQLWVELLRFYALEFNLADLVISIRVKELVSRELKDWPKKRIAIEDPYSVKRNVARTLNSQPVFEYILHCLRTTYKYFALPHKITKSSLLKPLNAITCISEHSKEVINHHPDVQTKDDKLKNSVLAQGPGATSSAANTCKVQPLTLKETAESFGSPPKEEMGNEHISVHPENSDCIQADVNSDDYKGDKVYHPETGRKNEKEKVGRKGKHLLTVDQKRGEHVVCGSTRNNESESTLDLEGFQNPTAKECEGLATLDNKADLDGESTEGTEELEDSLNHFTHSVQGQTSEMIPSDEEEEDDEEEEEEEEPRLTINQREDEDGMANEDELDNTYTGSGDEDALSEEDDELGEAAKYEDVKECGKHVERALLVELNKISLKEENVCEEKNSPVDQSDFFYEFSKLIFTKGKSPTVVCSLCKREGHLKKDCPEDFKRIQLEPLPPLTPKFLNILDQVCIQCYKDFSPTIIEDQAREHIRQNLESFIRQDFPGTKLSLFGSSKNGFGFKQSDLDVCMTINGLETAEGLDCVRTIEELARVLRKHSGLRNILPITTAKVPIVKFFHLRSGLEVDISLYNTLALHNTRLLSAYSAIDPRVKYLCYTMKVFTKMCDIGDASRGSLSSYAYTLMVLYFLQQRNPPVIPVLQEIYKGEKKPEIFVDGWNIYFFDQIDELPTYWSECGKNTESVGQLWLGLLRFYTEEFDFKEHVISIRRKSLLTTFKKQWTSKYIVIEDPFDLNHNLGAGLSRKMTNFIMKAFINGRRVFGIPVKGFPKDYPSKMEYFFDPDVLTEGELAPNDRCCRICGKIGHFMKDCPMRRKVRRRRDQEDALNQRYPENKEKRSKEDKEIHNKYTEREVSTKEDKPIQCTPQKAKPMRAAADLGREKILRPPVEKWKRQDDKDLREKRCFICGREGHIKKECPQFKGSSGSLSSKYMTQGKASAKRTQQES

TUT4 (ZCCHC11);LIN28A [2] = target: T1, TUT4 (ZCCHC11);LIN28A; assay: EMSA; 0.5 mM UTP, Ca2+, Zn2+; higher-order assemblies, concentration dependent; EMSA: 20 mM HEPES pH 7.8, 100 mM NaCl, 2 mM CaCl2, 50 uM ZnCl2, 5% glycerol, 5 mM DTT, 0.5 mM UTP, RNase inhibitor, on ice 30 min; 0.1 uM RNA, 0.2 uM TUT, 0.3 uM LIN28A; native gel in 1x TBE at 4 C; settings: protein: recombinant;recombinant; tags: N-term His6-GST (TEV cleavable), C-term twin-Strep;N-term His6-GST fusion; copies: 1;1; label: 3' CY dye; hairpin, 1 nt 3' overhang
[3] = target: T2, TUT4 K919/K920 mutant (ZK1);LIN28A; assay: EMSA; 0.5 mM UTP, Ca2+, Zn2+; higher-order assemblies seen; EMSA: 20 mM HEPES pH 7.8, 100 mM NaCl, 2 mM CaCl2, 50 uM ZnCl2, 5% glycerol, 5 mM DTT, 0.5 mM UTP, RNase inhibitor, on ice 30 min; 0.1 uM RNA, 0.2 uM TUT, 0.3 uM LIN28A; native gel in 1x TBE at 4 C; settings: protein: recombinant;recombinant; tags: N-term His6-GST (TEV cleavable), C-term twin-Strep;N-term His6-GST fusion; copies: 1;1; label: 3' CY dye; hairpin, 1 nt 3' overhang

Binder	binding result (TUT4 (ZCCHC11);LIN28A [1])	binding result (TUT7 (ZCCHC6);LIN28A)	binding result (TUT4 (ZCCHC11);LIN28A [2])	binding result [3]
B1	binds	binds		
B2			binds	binds
